± gives the uncertainty stated by the source.
Experiment: self-splicing fitness, log relative to wild type (ln ratio); higher = more splicing; Tetrahymena group I intron in knt gene, E. coli kanamycin selection, DiMSum; sequences stand for … in CUCUCU…GGAGGGAAAAGUUAUCAGGCAUGCACCUGGUAGCUAGUCUUUAAACCAAUAGAUUGCAUCGGUUUAAAAGGCAAGACCGUCAAAUUGCGGGAAAGGGGUCAACAGCCGUUCAGUACCAAGUCUCAGGGGAAACUUUGAGAUGGCCUUGCAAAGGGUAUGGUAAUAAGCUGACGGACAUGGUCCUAACCACGCAGCCAAGUCCUAAGUCAACAGAUCUUCUGUUGAUAUGGAUGCAGUUCACAGACUAAAUGUCGGUCGGGGAAGAUGUAUUCUUCUCAUAAGAUAUAGUCGGACCUCUCCUUAAUGGGAGCUAGCGGAUGAAGUGAUGCAACACUGGAGCCGCUGGGAACUAAUUUGUAUGCGAAAGUAUAUUGAUUAGUUUUGGAGUACUCGUGGUCG
Procedure, shortened: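 Six replicate transformations of E. coli BL21(DE3) with a pET-22b(+) library were grown overnight at 37°C or 30°C. The library randomised all eight P1ex-region intron nucleotides, the intron lying in the knt kanamycin-resistance gene, and plates were LB agar with or without 25 μg/mL kanamycin plus 100 μg/mL carbenicillin, 50 μM IPTG and 0.2% rhamnose. Pooled colonies were amplicon-sequenced on an Illumina HiSeq 2500, and fitness is the DiMSum error-weighted combination of wild-type-normalised replicate fold changes, kanamycin versus none.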

Row | Sequence | self-splicing fitness (ln) (30 °C) | self-splicing fitness (ln) (37 °C)
1 | GAUGAGCAAUAUUACGUGAA | -3.72 ± 0.22 | -1.91 ± 0.2
2 | GAUGAGCAAUAUUACGUGAC | -3.05 ± 0.34 | -2.3 ± 0.42
3 | GAUGAGCAAUAUUACGUGGU | -3.36 ± 0.37 | –
4 | GAUGAGCAAUAUUACGUUCU | -2.89 ± 0.16 | -1.32 ± 0.12
5 | GAUUAGCAAUAUUACGAAGU | -2.54 ± 0.16 | -0.783 ± 0.12
6 | GAUUAGCAAUAUUACGACCA | -0.409 ± 0.23 | -0.295 ± 0.34
7 | GAUUAGCAAUAUUACGACGG | – | -2.39 ± 0.33
8 | GAUUAGCAAUAUUACGACGU | -0.442 ± 0.063 | 0.93 ± 0.089
9 | GAUUAGCAAUAUUACGAGAA | – | -1.51 ± 0.3
10 | GAUUAGCAAUAUUACGAGUG | -1.25 ± 0.094 | -0.616 ± 0.1
11 | GAUUAGCAAUAUUACGAUGC | -0.852 ± 0.083 | -0.525 ± 0.095
12 | GAUUAGCAAUAUUACGAUGG | -3.28 ± 0.15 | -1.17 ± 0.12
13 | GAUUAGCAAUAUUACGAUUG | -1.71 ± 0.13 | -0.919 ± 0.18
14 | GAUUAGCAAUAUUACGCAAU | -2.41 ± 0.33 | -1.9 ± 0.36
15 | GAUUAGCAAUAUUACGCACG | -1.36 ± 0.12 | -1.14 ± 0.14
16 | GAUUAGCAAUAUUACGCAGG | – | -0.28 ± 0.27
17 | GAUUAGCAAUAUUACGCCAU | – | -1.97 ± 0.47
18 | GAUUAGCAAUAUUACGCCCG | 0.359 ± 0.24 | –
19 | GAUUAGCAAUAUUACGCUCA | -0.572 ± 0.12 | -0.182 ± 0.17
20 | GAUUAGCAAUAUUACGCUUA | -1.22 ± 0.13 | -0.752 ± 0.095
21 | GAUUAGCAAUAUUACGGACU | -0.413 ± 0.086 | -0.223 ± 0.1
22 | GAUUAGCAAUAUUACGGCAC | -0.128 ± 0.13 | -0.42 ± 0.12
23 | GAUUAGCAAUAUUACGGGAC | -2.53 ± 0.18 | -1.53 ± 0.14
24 | GAUUAGCAAUAUUACGGGCC | -1.66 ± 0.32 | -2.01 ± 0.47
25 | GAUUAGCAAUAUUACGUAAA | -2.19 ± 0.15 | -0.793 ± 0.19

Row | Sequence | self-splicing fitness (ln) (30 °C) | self-splicing fitness (ln) (37 °C)
26 | GAUUAGCAAUAUUACGUAAG | -2.02 ± 0.18 | -0.715 ± 0.29
27 | GAUUAGCAAUAUUACGUCGA | -1.83 ± 0.12 | -0.819 ± 0.11
28 | GAUUAGCAAUAUUACGUGCG | -2.8 ± 0.16 | 0.0923 ± 0.12
29 | GAUUAGCAAUAUUACGUGCU | -2.46 ± 0.18 | -1.26 ± 0.14
30 | GCAAAGCAAUAUUACGAUAU | -1.41 ± 0.075 | 0.42 ± 0.082
31 | GCAAAGCAAUAUUACGAUUU | -0.938 ± 0.06 | -0.449 ± 0.082
32 | GCAAAGCAAUAUUACGCAAG | -3.95 ± 0.19 | -2.22 ± 0.14
33 | GCAAAGCAAUAUUACGCACC | -1.15 ± 0.17 | -1.45 ± 0.16
34 | GCAAAGCAAUAUUACGCCGA | -2.04 ± 0.31 | -1.82 ± 0.21
35 | GCAAAGCAAUAUUACGCGCU | -3.48 ± 0.23 | -2.01 ± 0.18
36 | GCAAAGCAAUAUUACGCGGA | -3.48 ± 0.27 | -1.94 ± 0.17
37 | GCAAAGCAAUAUUACGCGGU | -4.16 ± 0.22 | -2.67 ± 0.24
38 | GCAAAGCAAUAUUACGCUAA | -2.19 ± 0.14 | -1.29 ± 0.12
39 | GCAAAGCAAUAUUACGCUGA | -2.59 ± 0.12 | -2.04 ± 0.11
40 | GCAAAGCAAUAUUACGGACG | -1.4 ± 0.091 | 0.261 ± 0.14
41 | GCAAAGCAAUAUUACGGCAA | -0.673 ± 0.094 | -0.722 ± 0.091
42 | GCAAAGCAAUAUUACGGCAC | -0.648 ± 0.081 | -0.426 ± 0.09
43 | GCAAAGCAAUAUUACGGCAG | -3.61 ± 0.22 | -2.81 ± 0.31
44 | GCAAAGCAAUAUUACGGCCA | -2.11 ± 0.24 | -0.962 ± 0.19
45 | GCAAAGCAAUAUUACGGUAG | -2.68 ± 0.14 | -3.34 ± 0.23
46 | GCAAAGCAAUAUUACGUAAA | -0.824 ± 0.062 | -0.5 ± 0.085
47 | GCAAAGCAAUAUUACGUAAG | -1.92 ± 0.1 | -0.569 ± 0.11
48 | GCAAAGCAAUAUUACGUCCU | -0.435 ± 0.1 | 0.035 ± 0.12
49 | GCAAAGCAAUAUUACGUCUC | -1.02 ± 0.11 | -0.501 ± 0.12
50 | GCAAAGCAAUAUUACGUGGU | -3.38 ± 0.15 | -2.59 ± 0.15

Row | Sequence | self-splicing fitness (ln) (30 °C) | self-splicing fitness (ln) (37 °C)
51 | GCAAAGCAAUAUUACGUUCA | -0.597 ± 0.064 | -0.534 ± 0.077
52 | GCACAGCAAUAUUACGAAGC | -2.52 ± 0.23 | -0.749 ± 0.15
53 | GCACAGCAAUAUUACGAGAC | -2.51 ± 0.17 | -2.06 ± 0.18
54 | GCACAGCAAUAUUACGAGUA | -1.31 ± 0.084 | -0.881 ± 0.088
55 | GCACAGCAAUAUUACGAUAA | -1.31 ± 0.07 | -0.957 ± 0.096
56 | GCACAGCAAUAUUACGAUCC | -0.381 ± 0.11 | -0.0747 ± 0.16
57 | GCACAGCAAUAUUACGCAUG | -2.95 ± 0.19 | -0.809 ± 0.12
58 | GCACAGCAAUAUUACGCCGG | -1.25 ± 0.1 | -0.896 ± 0.16
59 | GCACAGCAAUAUUACGCGUA | -0.987 ± 0.094 | -0.173 ± 0.086
60 | GCACAGCAAUAUUACGCUAA | -1.6 ± 0.092 | -0.281 ± 0.089
61 | GCACAGCAAUAUUACGGAGU | -1.69 ± 0.05 | -0.838 ± 0.061
62 | GCACAGCAAUAUUACGGAUA | -2.49 ± 0.17 | -1.38 ± 0.12
63 | GCACAGCAAUAUUACGGCCC | -0.235 ± 0.1 | -0.615 ± 0.13
64 | GCACAGCAAUAUUACGGGCG | -1.4 ± 0.071 | 0.0832 ± 0.081
65 | GCACAGCAAUAUUACGGGGU | -2.83 ± 0.13 | -1.35 ± 0.11
66 | GCACAGCAAUAUUACGUACC | -1.47 ± 0.096 | -0.717 ± 0.13
67 | GCACAGCAAUAUUACGUACG | -0.945 ± 0.092 | -0.0901 ± 0.098
68 | GCACAGCAAUAUUACGUAGG | -0.466 ± 0.055 | -0.109 ± 0.069
69 | GCACAGCAAUAUUACGUAGU | -0.976 ± 0.057 | -0.516 ± 0.072
70 | GCACAGCAAUAUUACGUAUA | -0.999 ± 0.06 | -0.413 ± 0.07
71 | GCACAGCAAUAUUACGUAUG | -2.21 ± 0.073 | -1.52 ± 0.079
72 | GCACAGCAAUAUUACGUCAC | -3.68 ± 0.26 | -2.42 ± 0.32
73 | GCACAGCAAUAUUACGUCAU | -1.89 ± 0.071 | -0.731 ± 0.082
74 | GCACAGCAAUAUUACGUCCG | -0.402 ± 0.09 | -0.201 ± 0.11
75 | GCACAGCAAUAUUACGUCUU | -0.723 ± 0.053 | 0.267 ± 0.064

Row | Sequence | self-splicing fitness (ln) (30 °C) | self-splicing fitness (ln) (37 °C)
76 | GCACAGCAAUAUUACGUGAA | 0.0235 ± 0.053 | -0.102 ± 0.068
77 | GCACAGCAAUAUUACGUGAU | -0.331 ± 0.029 | 0.114 ± 0.044
78 | GCACAGCAAUAUUACGUGGC | -4.03 ± 0.18 | -2.74 ± 0.15
79 | GCAGAGCAAUAUUACGAACU | -0.968 ± 0.14 | -1.1 ± 0.19
80 | GCAGAGCAAUAUUACGAAUA | -3.67 ± 0.32 | -2.78 ± 0.26
81 | GCAGAGCAAUAUUACGAAUG | -2.71 ± 0.35 | –
82 | GCAGAGCAAUAUUACGACAC | -1.46 ± 0.2 | -0.344 ± 0.33
83 | GCAGAGCAAUAUUACGAGUU | -4.28 ± 0.16 | -1.82 ± 0.095
84 | GCAGAGCAAUAUUACGCCAG | -2.36 ± 0.48 | –
85 | GCAGAGCAAUAUUACGCCCA | -1.07 ± 0.28 | -0.895 ± 0.46
86 | GCAGAGCAAUAUUACGCGAA | -4.38 ± 0.24 | -3.44 ± 0.21
87 | GCAGAGCAAUAUUACGCGUA | -2.94 ± 0.33 | -2.22 ± 0.25
88 | GCAGAGCAAUAUUACGCUCA | -1.66 ± 0.15 | -0.832 ± 0.15
89 | GCAGAGCAAUAUUACGCUUC | -3.9 ± 0.27 | -2.22 ± 0.2
90 | GCAGAGCAAUAUUACGGAAU | -3.4 ± 0.36 | -1.51 ± 0.34
91 | GCAGAGCAAUAUUACGGAUG | -2.76 ± 0.18 | -1.82 ± 0.22
92 | GCAGAGCAAUAUUACGGCCG | -3.3 ± 0.24 | -2.02 ± 0.27
93 | GCAGAGCAAUAUUACGGGAA | -2.68 ± 0.19 | -1.96 ± 0.18
94 | GCAGAGCAAUAUUACGGGCU | -1.78 ± 0.3 | -2.03 ± 0.39
95 | GCAGAGCAAUAUUACGGGGG | -3.1 ± 0.34 | -3.56 ± 0.39
96 | GCAGAGCAAUAUUACGGGUC | -3.78 ± 0.47 | -2.29 ± 0.24
97 | GCAGAGCAAUAUUACGGUAC | -2.65 ± 0.22 | -1.79 ± 0.45

— the supplement of paper PMC7877785
